The data set deals with Escherichia coli TOP10. Kind of data set: shrunken log2 fold change of peptide-encoding DNA abundance (4.5 h post-induction vs induction); higher = less antimicrobial activity (less host growth inhibition). The conditions noted are these: time post-induction: 4.5 h; library: site-saturation at positions 5, 18, 19, 20.
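Note: peptides expressed intracellularly from a pBAD plasmid library in pooled LB shake-flask culture, induced with 0.3% L-arabinose, DNA abundance read by NGS, three biological replicates, DESeq2 with apeglm shrinkage.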

With RRIRKRPPRLPRPRPRPFISPRP, the “shrunken log2 fold change” value is -0.113.
Consider RRIRWRPPRLPRPRPRPNERPRP, for which the “shrunken log2 fold change” value is 0.119.
Take RRIRTRPPRLPRPRPRPRIRPRP: the “shrunken log2 fold change” value worked out at 0.0303.
In the case of RRIRKRPPRLPRPRPRPMDRPRP, the “shrunken log2 fold change” value amounted to 0.0586.
For RRIRNRPPRLPRPRPRPWFQPRP, the “shrunken log2 fold change” value is -0.109.
On to RRIRHRPPRLPRPRPRPSCAPRP, for which the “shrunken log2 fold change” value was determined as 0.137.
As to RRIRVRPPRLPRPRPRPEERPRP, the “shrunken log2 fold change” value was -0.194.
Consider RRIRDRPPRLPRPRPRPAKVPRP, for which the “shrunken log2 fold change” value stood at 0.114.
As to RRIRARPPRLPRPRPRPEDPPRP, the “shrunken log2 fold change” value came out at 0.823.
Turning to RRIRMRPPRLPRPRPRPHARPRP, the “shrunken log2 fold change” value was 0.299.
To RRIRMRPPRLPRPRPRPNQVPRP belongs -0.217; to RRIRARPPRLPRPRPRPSYRPRP, -0.228; to RRIRCRPPRLPRPRPRPRHDPRP, -0.234.
Turning to RRIRDRPPRLPRPRPRPDDEPRP, the “shrunken log2 fold change” value is 0.425.
With RRIRPRPPRLPRPRPRPPEWPRP, the “shrunken log2 fold change” value was determined as 0.443.
Take RRIRPRPPRLPRPRPRPCMYPRP: the “shrunken log2 fold change” value was -0.226.
Consider RRIRYRPPRLPRPRPRPYHQPRP, for which the “shrunken log2 fold change” value was -0.662.
The figure for RRIRTRPPRLPRPRPRPHHAPRP is -0.00367; for RRIRWRPPRLPRPRPRPRVAPRP it is 0.699; for RRIRERPPRLPRPRPRPFHHPRP it is 0.0149.
On to RRIRNRPPRLPRPRPRPGYNPRP, for which the “shrunken log2 fold change” value is -0.198.
Consider RRIRMRPPRLPRPRPRPIFCPRP, for which the “shrunken log2 fold change” value was -0.0454.
Consider RRIRVRPPRLPRPRPRPRNAPRP, for which the “shrunken log2 fold change” value was found to be 0.225.
Consider RRIRGRPPRLPRPRPRPSIKPRP, for which the “shrunken log2 fold change” value was 0.47.
The figure for RRIRIRPPRLPRPRPRPGNNPRP is -0.00577.
To RRIRCRPPRLPRPRPRPAMTPRP belongs -0.0039; to RRIRDRPPRLPRPRPRPTWVPRP, 0.323; to RRIRKRPPRLPRPRPRPWKQPRP, 0.0185.
Turning to RRIRERPPRLPRPRPRPMDEPRP, the “shrunken log2 fold change” value is -0.153.
For RRIRDRPPRLPRPRPRPPDRPRP, the “shrunken log2 fold change” value stood at 0.468.
Regarding RRIRVRPPRLPRPRPRPCMTPRP, the “shrunken log2 fold change” value is 0.0668.
For the sequence RRIRRRPPRLPRPRPRPILRPRP, the “shrunken log2 fold change” value stood at 0.691.
Take RRIRPRPPRLPRPRPRPSMWPRP: the “shrunken log2 fold change” value was -0.252.
In the case of RRIRWRPPRLPRPRPRPEVKPRP, the “shrunken log2 fold change” value turned out to be 0.21.
As for RRIRKRPPRLPRPRPRPWTKPRP, the “shrunken log2 fold change” value is -0.0423.
Consider RRIRMRPPRLPRPRPRPQTWPRP, for which the “shrunken log2 fold change” value turned out to be 0.39.
For the sequence RRIRKRPPRLPRPRPRPYFRPRP, the “shrunken log2 fold change” value was found to be 0.123.
Take RRIRDRPPRLPRPRPRPAHFPRP: the “shrunken log2 fold change” value was 0.358.
RRIRYRPPRLPRPRPRPFWRPRP: the “shrunken log2 fold change” value is 0.0184.
To RRIRCRPPRLPRPRPRPRHCPRP belongs 0.423; to RRIRERPPRLPRPRPRPSNYPRP, -1.12.
RRIRERPPRLPRPRPRPDWTPRP: the “shrunken log2 fold change” value came to 0.0763.
On to RRIRFRPPRLPRPRPRPFIFPRP, for which the “shrunken log2 fold change” value was -0.544.
As for RRIRSRPPRLPRPRPRPRNNPRP, the “shrunken log2 fold change” value was -0.212.
For RRIRLRPPRLPRPRPRPGLYPRP, the “shrunken log2 fold change” value is -0.476.
Turning to RRIRMRPPRLPRPRPRPHGNPRP, the “shrunken log2 fold change” value was -0.184.
Take RRIRFRPPRLPRPRPRPKTPPRP: the “shrunken log2 fold change” value was 0.207.
As to RRIRFRPPRLPRPRPRPNKNPRP, the “shrunken log2 fold change” value is -0.384.
As for RRIRYRPPRLPRPRPRPGGLPRP, the “shrunken log2 fold change” value stood at 3.02.
In the case of RRIRFRPPRLPRPRPRPPHGPRP, the “shrunken log2 fold change” value came out at 0.364.
The figure for RRIRDRPPRLPRPRPRPAVWPRP is 1.19.
To RRIRWRPPRLPRPRPRPKPHPRP belongs 0.351; to RRIRPRPPRLPRPRPRPEQPPRP, 0.184.
To RRIRYRPPRLPRPRPRPQWGPRP belongs 0.122; to RRIRMRPPRLPRPRPRPAVIPRP, -0.1; to RRIRVRPPRLPRPRPRPCECPRP, 0.00846.
RRIRQRPPRLPRPRPRPITAPRP: the “shrunken log2 fold change” value was -0.503.
Turning to RRIRSRPPRLPRPRPRPGTMPRP, the “shrunken log2 fold change” value is -0.315.
To RRIRMRPPRLPRPRPRPQYSPRP belongs 0.0353; to RRIRIRPPRLPRPRPRPENTPRP, -0.397; to RRIRTRPPRLPRPRPRPQNMPRP, -0.654.
For the sequence RRIRCRPPRLPRPRPRPMLKPRP, the “shrunken log2 fold change” value is -0.141.
In the case of RRIRERPPRLPRPRPRPGPCPRP, the “shrunken log2 fold change” value worked out at 0.183.
As to RRIRWRPPRLPRPRPRPYPLPRP, the “shrunken log2 fold change” value was -0.0066.
For RRIRPRPPRLPRPRPRPVVEPRP, the “shrunken log2 fold change” value was -0.0705.
Turning to RRIRCRPPRLPRPRPRPKPNPRP, the “shrunken log2 fold change” value was 0.572.
As to RRIRRRPPRLPRPRPRPCNSPRP, the “shrunken log2 fold change” value was 0.00408.
In the case of RRIRIRPPRLPRPRPRPWGIPRP, the “shrunken log2 fold change” value was -0.109.
Regarding RRIRDRPPRLPRPRPRPIWSPRP, the “shrunken log2 fold change” value is -0.0288.
Turning to RRIRFRPPRLPRPRPRPMIDPRP, the “shrunken log2 fold change” value was -0.209.
For the sequence RRIRMRPPRLPRPRPRPMKTPRP, the “shrunken log2 fold change” value was -0.00191.
In the case of RRIRCRPPRLPRPRPRPQPIPRP, the “shrunken log2 fold change” value is -0.335.
The figure for RRIRNRPPRLPRPRPRPAYAPRP is -0.236; for RRIRSRPPRLPRPRPRPFKCPRP it is -0.226; for RRIRRRPPRLPRPRPRPIKAPRP it is 0.0673.
To RRIRERPPRLPRPRPRPPVYPRP belongs 0.00394; to RRIRKRPPRLPRPRPRPSNLPRP, -0.0133; to RRIRLRPPRLPRPRPRPSREPRP, -0.104.
To RRIRWRPPRLPRPRPRPRERPRP belongs 0.859; to RRIRVRPPRLPRPRPRPFWWPRP, 0.343; to RRIRNRPPRLPRPRPRPAKAPRP, 0.113.
RRIRHRPPRLPRPRPRPPPHPRP: the “shrunken log2 fold change” value worked out at 0.703.
As for RRIRMRPPRLPRPRPRPVWEPRP, the “shrunken log2 fold change” value is 0.4.
For the sequence RRIRNRPPRLPRPRPRPAEVPRP, the “shrunken log2 fold change” value was -0.144.
In the case of RRIRMRPPRLPRPRPRPHLIPRP, the “shrunken log2 fold change” value came to 0.133.
Take RRIRFRPPRLPRPRPRPVGVPRP: the “shrunken log2 fold change” value worked out at 0.356.
As to RRIRARPPRLPRPRPRPGLTPRP, the “shrunken log2 fold change” value amounted to 0.686.
In the case of RRIRPRPPRLPRPRPRPQWAPRP, the “shrunken log2 fold change” value was 0.052.
On to RRIRERPPRLPRPRPRPDRMPRP, for which the “shrunken log2 fold change” value was -0.0498.
As to RRIRLRPPRLPRPRPRPQNGPRP, the “shrunken log2 fold change” value is -0.146.
RRIRVRPPRLPRPRPRPEKVPRP: the “shrunken log2 fold change” value stood at 0.13.
As for RRIRMRPPRLPRPRPRPSWAPRP, the “shrunken log2 fold change” value stood at 0.203.
For the sequence RRIRNRPPRLPRPRPRPAVFPRP, the “shrunken log2 fold change” value was found to be 0.0636.
For the sequence RRIRGRPPRLPRPRPRPDSCPRP, the “shrunken log2 fold change” value amounted to 0.426.
Turning to RRIRWRPPRLPRPRPRPDCEPRP, the “shrunken log2 fold change” value is 2.54.
Take RRIRVRPPRLPRPRPRPNMYPRP: the “shrunken log2 fold change” value amounted to 0.0145.
With RRIRKRPPRLPRPRPRPPKRPRP, the “shrunken log2 fold change” value was found to be 1.15.
To RRIRNRPPRLPRPRPRPSWFPRP belongs -0.398.
Turning to RRIRDRPPRLPRPRPRPHVCPRP, the “shrunken log2 fold change” value was -0.00727.
To RRIRSRPPRLPRPRPRPSEQPRP belongs -0.0884; to RRIRVRPPRLPRPRPRPGFCPRP, 0.352; to RRIRKRPPRLPRPRPRPYWEPRP, 0.0616.
To RRIRYRPPRLPRPRPRPMNYPRP belongs -0.49; to RRIRWRPPRLPRPRPRPCHQPRP, -0.0867; to RRIRVRPPRLPRPRPRPNWRPRP, 0.4.
Turning to RRIRDRPPRLPRPRPRPNQLPRP, the “shrunken log2 fold change” value is -0.0966.
On to RRIRSRPPRLPRPRPRPNVCPRP, for which the “shrunken log2 fold change” value was -0.0635.
The figure for RRIRSRPPRLPRPRPRPMWAPRP is 0.00731; for RRIRTRPPRLPRPRPRPTSLPRP it is -0.123; for RRIRIRPPRLPRPRPRPCGGPRP it is 0.188.
As for RRIRSRPPRLPRPRPRPDVAPRP, the “shrunken log2 fold change” value is 0.407.
On to RRIRIRPPRLPRPRPRPFRNPRP, for which the “shrunken log2 fold change” value is -0.902.
With RRIRVRPPRLPRPRPRPFKLPRP, the “shrunken log2 fold change” value was -0.277.
As to RRIRTRPPRLPRPRPRPEYHPRP, the “shrunken log2 fold change” value is -0.00732.
Consider RRIRWRPPRLPRPRPRPTEYPRP, for which the “shrunken log2 fold change” value is -0.0755.
RRIRHRPPRLPRPRPRPWPPPRP: the “shrunken log2 fold change” value was found to be 0.491.
For RRIRMRPPRLPRPRPRPHPQPRP, the “shrunken log2 fold change” value came out at 0.427.
On to RRIRMRPPRLPRPRPRPVQIPRP, for which the “shrunken log2 fold change” value came out at 0.378.
The figure for RRIRFRPPRLPRPRPRPTTLPRP is -0.0787.
As for RRIRVRPPRLPRPRPRPTVLPRP, the “shrunken log2 fold change” value was -0.0891.
In the case of RRIRKRPPRLPRPRPRPTKSPRP, the “shrunken log2 fold change” value was 2.1.
For the sequence RRIRYRPPRLPRPRPRPVESPRP, the “shrunken log2 fold change” value is -0.0746.
For the sequence RRIRGRPPRLPRPRPRPDHLPRP, the “shrunken log2 fold change” value came to 0.117.
RRIRLRPPRLPRPRPRPSEKPRP: the “shrunken log2 fold change” value was -0.0219.
On to RRIRNRPPRLPRPRPRPTFGPRP, for which the “shrunken log2 fold change” value is -0.084.

The record behind these values is the supplement of paper PMC9112550, “Optimization of the antimicrobial peptide Bac7 by deep mutational scanning” (BMC Biology, 2022).
